# Source: patent US20130071921A1 (Pfizer, published 2013)
# T1: recombinant mouse Dkk-4 (R&D systems Cat No. 3105-DK/CF) (mouse, UniProt Q8VEJ3 19-221, limits assumed)
# T1 construct: Bought; also called mDkk-4
# T1 sequence (looked up): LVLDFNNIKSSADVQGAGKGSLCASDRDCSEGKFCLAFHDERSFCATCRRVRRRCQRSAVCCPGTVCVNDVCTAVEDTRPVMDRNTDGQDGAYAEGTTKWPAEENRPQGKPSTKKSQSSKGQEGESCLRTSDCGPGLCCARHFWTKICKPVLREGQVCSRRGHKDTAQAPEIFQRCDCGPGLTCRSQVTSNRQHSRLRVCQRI
# T2: Recombinant human Dkk-1 (R&D Systems cat no. 1096-DK/CF), 10xHis tag at the C terminal (human, UniProt O94907 32-266)
# T2 construct: the actual N-terminus of the purified protein is marked in bold italic after residue 30, but the mark is an image lost in the text; also called rhuDkk-1; hDkk-1
# T2 sequence: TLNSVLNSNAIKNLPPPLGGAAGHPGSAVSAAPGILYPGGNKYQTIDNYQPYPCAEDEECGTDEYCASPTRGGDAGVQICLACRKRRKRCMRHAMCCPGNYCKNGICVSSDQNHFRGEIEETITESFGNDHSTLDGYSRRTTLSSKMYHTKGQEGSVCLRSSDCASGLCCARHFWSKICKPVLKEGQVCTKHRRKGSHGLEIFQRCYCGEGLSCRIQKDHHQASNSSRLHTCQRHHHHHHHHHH
# T3: recombinant mouse Dkk-1 (R&D systems Cat No. 1765-DK/CF) (mouse, UniProt O54908 32-272)
# T3 construct: Bought
# T3 sequence (looked up): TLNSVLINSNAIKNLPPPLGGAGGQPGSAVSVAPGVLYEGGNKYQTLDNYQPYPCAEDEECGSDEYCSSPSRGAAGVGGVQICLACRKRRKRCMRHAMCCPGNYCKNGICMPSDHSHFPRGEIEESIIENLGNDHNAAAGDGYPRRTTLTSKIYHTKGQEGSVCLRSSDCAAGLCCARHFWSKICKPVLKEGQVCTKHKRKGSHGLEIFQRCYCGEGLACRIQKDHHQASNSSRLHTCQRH
# T4: recombinant mouse Dkk-2 (R&D systems Cat No. 2435-DK/CF) (mouse, UniProt Q9QYZ8 34-259, limits assumed)
# T4 construct: Bought; also called mDkk-2
# T4 sequence (looked up): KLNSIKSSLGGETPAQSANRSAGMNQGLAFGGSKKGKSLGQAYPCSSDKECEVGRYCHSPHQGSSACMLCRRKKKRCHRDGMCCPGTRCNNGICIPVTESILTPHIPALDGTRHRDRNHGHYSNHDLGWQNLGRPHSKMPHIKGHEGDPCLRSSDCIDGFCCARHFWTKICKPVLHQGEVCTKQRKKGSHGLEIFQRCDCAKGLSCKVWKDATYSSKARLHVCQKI
# T5: recombinant human Dkk4 (R&D systems Cat No. 1269-DK/CF) (human, UniProt Q9UBT3 19-224)
# T5 construct: Bought; also called hDkk-4
# T5 sequence (looked up): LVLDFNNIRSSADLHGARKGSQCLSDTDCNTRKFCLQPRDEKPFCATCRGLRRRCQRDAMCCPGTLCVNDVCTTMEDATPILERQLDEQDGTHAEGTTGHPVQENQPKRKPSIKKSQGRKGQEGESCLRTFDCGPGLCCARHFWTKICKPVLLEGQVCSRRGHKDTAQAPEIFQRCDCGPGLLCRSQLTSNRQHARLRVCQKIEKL
# B1: huMabJC18, fully humanized anti-Dkk-1 monoclonal antibody (antibody, human IgG2, kappa, V domains shown)
# VH: EVQLVESGGGLVQPGGSLRLSCAASGFTFSSYAISWVRQAPGKGLEWVASVSGTGLGFQTYYPDSVKGRFTISRDNAKNSLYLQMNSLRAEDTAVYYCATSLENYAFDYWGQGTTVTVSS
# VL: EIVLTQSPATLSLSPGERATLSCRASESVDDFGISFINWYQQKPGQAPRLLIYAGSKQGSGIPARFSGSGSGTDFTLTISSLEPEDFAVYYCQQLKEVPPTFGGGTKVEIKR
# notes: IgG2(delta a: A329S, P330S), kappa; also called huMabJC18 IgG
# Tests used:
# [1] = biological target: T1, recombinant mouse Dkk-4 (R&D systems …); experiment: SPR BIAcore, huMabJC18 captured by goat Fab2 anti-human Fc, mDkk-4 titrated from 32.3 nM
# [2] = biological target: T2, Recombinant human Dkk-1 (R&D Systems …); experiment: SPR BIAcore 3000, CM5 chip (Table 8)
# [3] = biological target: T3, recombinant mouse Dkk-1 (R&D systems …); experiment: SPR BIAcore 3000, CM5 chip (Table 8)
# Cynomolgous monkey Dkk-1 [4] = biological target: T6, Cynomolgous monkey Dkk-1 (cynomolgous monkey); experiment: SPR BIAcore 3000, CM5 chip (Table 8)
# [5] = biological target: T7, recombinant rat Dkk-1 (R&D systems Cat No. 4010-DK/CF) (rat); experiment: SPR BIAcore 3000, CM5 chip (Table 8)
# T7 construct: Bought
# Cynomolgous monkey Dkk-1 [6] = biological target: T6, Cynomolgous monkey Dkk-1; experiment: TMDD PK/PD model fit to monkey serum data in vivo; derived as Koff/Kon
# [7] = biological target: T3, recombinant mouse Dkk-1 (R&D systems …); experiment: SPR BIAcore, huMabJC18 captured by goat Fab2 anti-human Fc, mouse Dkk-1 injected
# Method: For the interaction analyses of huMabJC18 with mouse or rat Dkk-1, low-levels of huMabJC18 (typically, 100-400 response units) were captured on individual flow cells by goat Fab2 anti-human Fc, which was pre-immobilized to the CM5 chip surface. A goat Fab2 anti-human Fc-saturated flow cell containing no humanized antibody served as reference channel. Mouse or rat Dkk-1 (R&D Systems) was titrated over the chip using 70.1 nM or 30.2 nM as top concentration, respectively, of a three-fold dilution series Association and dissociation phases were monitored at 100 μL/min for 90 seconds and 30 minutes, respectively. Capture surfaces for all experiments were regenerated with two 30 second pulses of […] H₃PO₄, except for the amine-coupled huMabJC18 surface used in the human Dkk-1 experiment, which was not regenerated.
# [8] = biological target: T4, recombinant mouse Dkk-2 (R&D systems …); experiment: SPR BIAcore, huMabJC18 captured by goat Fab2 anti-human Fc, mDkk-2 titrated from 88.8 nM
# [9] = biological target: T5, recombinant human Dkk4 (R&D systems Cat …); experiment: SPR BIAcore, huMabJC18 captured by goat Fab2 anti-human Fc, hDkk-4 titrated from 76.3 nM
# [10] = biological target: T2, Recombinant human Dkk-1 (R&D Systems …); experiment: SPR (Table 4, headed 37C, BIAcore or ProteOn)
binder,measurement,setting,value
B1,Kd,[1],< 0.03 nM
same,T1/2,[1],> 4.94 h
same,koff,[1],< 3.9e-05 s⁻¹
same,kon,[1],> 1.3e+06 M⁻¹ s⁻¹
same,Kd,[2],< 0.002 nM
same,T1/2,[2],> 96.3 h
same,koff,[2],< 2e-06 s⁻¹
same,kon,[2],> 1.3e+06 M⁻¹ s⁻¹
same,Kd,[3],< 0.03 nM
same,T1/2,[3],> 4.94 h
same,koff,[3],< 3.9e-05 s⁻¹
same,kon,[3],> 1.3e+06 M⁻¹ s⁻¹
same,T1/2,Cynomolgous monkey Dkk-1 [4],> 5 h
same,koff,Cynomolgous monkey Dkk-1 [4],< 6e-05 s⁻¹
same,Kd,[5],< 0.1 nM
same,T1/2,[5],0.92 h
same,koff,[5],0.00021 s⁻¹
same,kon,[5],> 1.3e+06 M⁻¹ s⁻¹
same,Kd,Cynomolgous monkey Dkk-1 [6],0.0513 nM
same,Kd,[7],< 0.03 nM
same,T1/2,[7],> 4.94 h
same,koff,[7],< 3.9e-05 s⁻¹
same,kon,[7],> 1.3e+06 M⁻¹ s⁻¹
same,Kd,[8],9 nM
same,T1/2,[8],1.14 h
same,koff,[8],0.000169 s⁻¹
same,kon,[8],18000 M⁻¹ s⁻¹
same,Kd,[9],11 nM
same,T1/2,[9],1.12 h
same,koff,[9],0.000172 s⁻¹
same,kon,[9],15000 M⁻¹ s⁻¹
same,Kd,[10],< 0.002 nM
same,koff,[10],< 2e-06 s⁻¹
